Results from the domain aggregation screens of Martell et al. (2025).

Test: soluble fraction after stress (log2 fold change); higher = more stays soluble; pooled small domains, quantitative proteomics
Details: stress: 75 degC
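Further: 20 min heating vs room temperature control held 20 min.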

Sequence: HMSSGLLTVQEQRILEHLANGERNGDIAGRLHISEGTVKWHLHNMYRKLDAATRTQAVARARALRL
- soluble fraction (log2): 0.36

Sequence: HMIQLTDAEFNELVTYIKKNYGINLIKKRLLIEARMYSVLAKHGFTSFTEYINLIKRDPAELNTMLNKLTT
- soluble fraction (log2): -3.26

Sequence: HMKKNNTTPIPKTLNYVNIKGLSNEAVERLNKHKPSTLGQASRLEGITPAATSLISIAIKKNQLLEKAES
- soluble fraction (log2): 0.0664

Sequence: HMSDEAGKVLQLLRENGGYLPYNDRSDPEDIYAFFSMSKKTFKMTAGNLYKQKKIIFTNTGIKLTE
- soluble fraction (log2): -3.51

Sequence: HMDDYRIEDMMTVVEEQVIRQKETNLSWFFKRAGSLNEIITIFLAALELIKVHRVYVKQEHNFDDIILRKE
- soluble fraction (log2): 0.305

Sequence: HMGSLKEKIVLLEKLYQQNPSEEIKLLLINTYQLNHQYIQARKLFFTLTPEQKEKLPLASEFLIFL
- soluble fraction (log2): -1.04

Sequence: HMLIVLKPNVSQEEIDHIVDKIRSLSLEPHVSTGVQRTIITVIGDEDVIREQPLEALAGVESVKSILKP
- soluble fraction (log2): -0.358

Sequence: HMLKLTDRQKVILSILMSDGEKTASWIASQLGVGLRSVQLDLSYLRNNGFIKKASKSTHSAWIVLKK
- soluble fraction (log2): -4.1

Sequence: HMSLPKIVVPTDVTVSQLAKYLEVDAISIIKQLFGMGVVASLNQRLEDEIIQLIGNEFGKEIIFSE
- soluble fraction (log2): 0.162

Sequence: HMQPIEIQDRITKAFERSAALEAKNINVEVDGHTVKLTGTVHSLTEKEEARKAAFFAPGVTKVENHLIVDY
- soluble fraction (log2): 0.0424

Sequence: HMDLPAEFSKPELETLFKRGKQSGELSLTEVRDALEAAQLPNKKTQTKVLKVLSDNAIHVLMDG
- soluble fraction (log2): 0.0744

Sequence: HMVVPRSFKYEVLAHGGWAGNAQRYQTKEEALHAGLALSRRWTAVEDYRAVPSDDLPNQPAL
- soluble fraction (log2): -0.231

Sequence: HMKVTTGIDGLIGEEGVALSDFSGKGKIMVHGEIWNAEFSGEVKKGEVLLVEKANGMTLITRKKN
- soluble fraction (log2): ≥ 1.04

Sequence: HMTSKTLSAVEGEGLRLDKFLSNQLPELSRTKIQKMINDGLVFVNNTEAKASLILDGSEFIAYTVPD
- soluble fraction (log2): -0.243

Sequence: HMDSIDVQQKKLLTDIELGNIEGIKLFLKRHNNTINFLTIKGFHPLVYAVRNNNMEIVNLFLTT
- soluble fraction (log2): 0.149

Sequence: HMVRGNLAEELLKLREEEGISFQEAGARSGIARSTISQVVNQGLRLKPNQEESLWRVIEEVRGVKER
- soluble fraction (log2): 0.0321

Sequence: HMFEPLTDREREVLQALADGLSDKEIAERLYISPATVRTHITAILGKLDANSRLQAVVVAARHNLVTL
- soluble fraction (log2): -0.478

Sequence: HMTSESWAEKSRSLAAAGLIVMGRDAQLKIEGLTNLDPLIEAATASSTRLLTGQTIDELLTIVP
- soluble fraction (log2): -0.551

Sequence: HMNVAETITLGKRLFNHALTILGKKQRNISRKQLKNFLNDLGLKDSKDLYESIGTGDKNPILMAQLLLG
- soluble fraction (log2): -0.512

Sequence: HMNHSITLTERKNLLITGVKKIENFDKEEFLIETTMGFLVVKGDGLELIKLDTISGNVSIKGIVNGFTYID
- soluble fraction (log2): 0.15

Sequence: HMPDPHSEARNIVLNQLNFMPRSRKELETALAKRNIEADVAKIVLDRFEEIGMVDDAAYAEL
- soluble fraction (log2): 0.121

Sequence: HMGPTLTDEEEVVLNLLEKNHPVLLSELKENAGLSNKKWDKAIKGLSAHKLAKVTKTDDGLFVHLS
- soluble fraction (log2): 0.615

Sequence: HMHMELHEKIRLARELNKWSQEEVAEKLEMSPSGYAKIERGETALNIPRLEQIAEIFNIDIWELVKA
- soluble fraction (log2): -1.04

Sequence: HMYYHQIIGLDVVDENGNTLGKIKEILSPGANDVWVVKRKQKNDLLLPVIDDVIKDVDLAAGKVHVELLEG
- soluble fraction (log2): -0.269

Sequence: HMYAPKIETIQVPQDKIREVIGTGGKVIREIVETTGAKIDIGDTGLIKVASSDGEAIRAALDWINSIVAE
- soluble fraction (log2): 0.278

Sequence: HMNLKDINLNVRHYKIIDFVREHGYASIETLTRQFGVSAQTVRRDIIYLDNQAVLKRHHGGVGTLPG
- soluble fraction (log2): -1.97

Sequence: HMTRILTEDDIVNFLIRQPDTAYIIAKSFNENERKVKELLDLLIKKNKVREEIVNGVVSYAVN
- soluble fraction (log2): -0.229

Sequence: HMPASVEYIRLAAEQMTGQQVTIIEQPGNYAFILRIHLNDIYSLDLAALRARIDELKPAHLTYTVEQYD
- soluble fraction (log2): -2.86

Sequence: HMKNNITFSEFLHEVDNGRVIKVNIQGNNITGILADGKSFNTYTPNDPSLIEKLTSKGVSISATPI
- soluble fraction (log2): 0.13

Sequence: HMIDIIEYIISEESKGLRADQGIALQNPQYSRSLIQKWIKKGSVLVNNKIIRTKEILLEGDKISITPEENI
- soluble fraction (log2): -0.546

Sequence: HMEAKTSNPDYHARLGLTEGEGNDSALGVSVKAAEGGFGLLFGNKVGSDQLVRFANEDQVWLVNRALS
- soluble fraction (log2): 0.165

Sequence: HMDPTEPLFVGVVTAEPYLNIREYPTTQSKDLGDLFPGMHVNVYEIVPNWYRIDDGWVASAWVKRDWGGG
- soluble fraction (log2): -0.478

Sequence: HMSLEEIPLEERLGPGGLDPVAVYDSLPREMRDAFDSGSVSALREFVNALPAEDAARHMKAMVDSGLWVPT
- soluble fraction (log2): 0.148

Sequence: HMGTVFTDIMTDIASGKFPNVFPDSLEAQIQKNVTMAPDKLSATLQYGDKSVILPTTKGKEAAEAAVKAA
- soluble fraction (log2): 0.000803

Sequence: HMKTERTVRVQDQHLHYTLEEKPIKNVNLRIRPDGSVYVSAPFGTSRTLIDDFVASKSKQILAIQQAQSAM
- soluble fraction (log2): -0.277

Sequence: HMNNISKKIKELREQNNITQNKLANDLFIKQQTVAQWENGSRALKADSIISLAKYFNVSTDYLLGLTEN
- soluble fraction (log2): -0.898

Sequence: HMDGSEYAGTVRLGDGTLQPVPRFETSNSETPKYLYLVMDVTHDPPVYILEHESAELKSVLGGLVLIGSYS
- soluble fraction (log2): 0.0157

Sequence: HMSLPALALRQADSLAFKQVIYHDRVVPFNTLARDFVLKLTGKPSYGGMTPEQVVGGWLLRPEVWQNEPM
- soluble fraction (log2): 0.192

Sequence: HMYVKKSSFVKKSLNNYEFKITDNTNDLLIFYKGMLPDLFREEQGIVVEGLIDKNNNIVASKV
- soluble fraction (log2): 0.0603

Sequence: HMSEEGTIPDVSGQDEASAQKALENAGFTNIKSEAVYSEEEQGTVIDTNPTAGTKVSKDTEITMQVSKGSE
- soluble fraction (log2): 0.248

Sequence: HMKGVTVDGDNITVDGEKQTLISVNKNLDGDVVSYTYRTADGKLRTSRNVEVAQEINKQQLLKSIDAQ
- soluble fraction (log2): 0.0529

Sequence: HMDAPRFAAGDAVRVAGLVSKPQHNGRAGSVLSYDPVSLRYIVKVDGEDEPLKLKPENVLMPA
- soluble fraction (log2): 0.11

Sequence: HMETKKEIIEAINELEEKYRNAIYLTSIEKLSYEETSKILGQSLSNTKNLIHRGKQQLRKILIKK
- soluble fraction (log2): -0.772

Sequence: HMQFYSGLEARLMDPNTPEVFDDPISLMAFLQQKNISRVELEDNLLLPYLKEMAGQPIPKAELLEIIRK
- soluble fraction (log2): -0.815

Sequence: HMGKNYYEILGITKSASEEQVRKAFRGLAMEWHPDRNRSADSEERFKEINEAYQVLIDPKKRQMYDQYGR
- soluble fraction (log2): 0.394

Sequence: HMRHLSVPSQDTQQVLQRLKVELALPEGARVRSDPSDPGRRLIPFTESVPQEMIDQYPVVSINI
- soluble fraction (log2): -0.147

Sequence: HMNYNEKGEYTRTLTSGSETAVMTYRNFGETLDVALFKNGVQTDSLRLIKSEPGVLYRQSNGQFEKI
- soluble fraction (log2): -0.158

Sequence: HMQMLQDPFLNALRKEHVPVSIYLVNGIKLQGQVESFDQYVVLLRNTSVTQMVYKHAISTIVPARAVSL
- soluble fraction (log2): -0.748

Sequence: HMEMGNKIKELRTKLGITQEELSKTLNVSSQAVSKWENGGLPDLELIPEIAKYFNVTTDYLFDIK
- soluble fraction (log2): -0.187

Sequence: HMPAAKARTWQEATHAFQRDFLLETLRRARFNAADAADQLGLARPALYTTAKRLGLDLVAERQRWEAEAH
- soluble fraction (log2): -0.668

Sequence: HMKGKWKPIILWQLSKAPQSLSGLRHSIAGISQKMLIQHLNELIHFGFVVRTTFEGYPLKVEYDLTDRGR
- soluble fraction (log2): -0.196

Sequence: HMNIYFNIEDAVANAVVENGKMSAAIYEKNVDTGEVAKLAEVSMPVMGGNINITKTLLTKALISQLP
- soluble fraction (log2): -0.71

Sequence: HMKDANIQIGKRLREARLNMNLEKSEIADVLGVTVEHYRKLEAGVMGISVDKVLTLYHKYGIDPTYLITG
- soluble fraction (log2): -3.36

Sequence: HMQGEDEILKIHEALEELAQIDARLVRVVEMRYFVGLSNQEIADSLGVTTRTVERDWEKARTFLFNALHP
- soluble fraction (log2): -1.86

Sequence: HMDGPGDRLLIAIQENSMTQKKFAQLIGMSPNGLNSIIKGKKRLSRVLAIATERLTGVRADWILQNEQPK
- soluble fraction (log2): -0.0913

Sequence: HMTHPQVEAYLDDLARMLADIDPGERDDILASVREHLDAEIAAGHGSDAVVNATLLRLGPPEQVAAAARTN
- soluble fraction (log2): -0.0131

Sequence: HMKNYYRILGLNIDAEYEEIKAAYRILAQRHHPDKGGAAAEFRLIQEAYDILSNPLTKRNYDADLLATLN
- soluble fraction (log2): -2.65

Sequence: HMAARLMRALIPYAQGGLLAKLHEDGQVLSEEYTGEGIEVKALADEQLFGRLTVQLGEQAVSWQD
- soluble fraction (log2): -0.163

Sequence: HMLKKGDQVYIISGKDKGKLGVVSQIVSEERILVDGINLAKKHVKPNPNKNETGGVVEKEMPIHASNVMI
- soluble fraction (log2): 0.243

Sequence: HMEIETPEIRAIHDLLELLANKAKKPEQEQFVQAHPEVQWAKVEANKNGTFAVGKVKAYLKTLQA
- soluble fraction (log2): -0.39

Sequence: HMSSKSDQLYLQLRRRISAMKDGEPFPTVRQLMTEYQVSQSTVTPAINQLKEKGLIEAYVGRGSFVSKK
- soluble fraction (log2): -0.657

Sequence: HMDAMGAVGIARAFISAGERGGDISDGLEHMHGKLLRLSSLMYTRSGKKMAARRHELLSSFVQALEEEIK
- soluble fraction (log2): -0.327

Sequence: HMTLSDIGHAVRTRRTELGLSQVQLARLSGLSRQTLVGLENGTLNDLGINRVAQLLAVLGLDAP
- soluble fraction (log2): -2.02

Sequence: HMHNPSYDMSKDVDILVMKFRDYNNLTDDEARFLLDKAKDAYYNTGKEILSDNEYDTLEKSLGQE
- soluble fraction (log2): -0.000671

Sequence: HMSEEKLVFSIPDDIETMRIDKAIALETHLSRAQIAELFKENKILLNSKNSKRSEKVKPGDKISLEFIPKI
- soluble fraction (log2): -0.0442

Sequence: HMHDLDALTGLSGEARSKVYEEGSVFVAGEMWSAKSDAVIPAGSSIRVVRREGFILVVEKDS
- soluble fraction (log2): -2.48

Sequence: HMPAAFALLTDREREIAALIAQRLTNREIAEKLYLSEGSVKQYVNQLYAKLGIEGDTRTKRRRLAEQAK
- soluble fraction (log2): -0.641

Sequence: HMLSTQEYIKKNIENGSWKVGEKIPSENNLTEILGVSRASIRVAIQQFIALDVLNSIHGKGTFVKTNNIMG
- soluble fraction (log2): 0.112

Sequence: HMGQARQSAIRELGNDPTSGKKITVRSGRYGPYVTDGEVNASLRKGDDPQTIDLDRAIELLAARREKLG
- soluble fraction (log2): -0.148

Sequence: HMQDFEQNLFDGKSIYDRMLSKFSLHNVDVKQLVAHFKRKDTEQFFADIGRGLITSAQMLGFLQT
- soluble fraction (log2): -0.0166

Sequence: HMAEVRTLLVPIELAGMRFDQVLAELLPEFSRSRLAAWIKSGDALLDGHDAKPKGVVRGGEQIEIRLA
- soluble fraction (log2): -0.0127

Sequence: HMEQPAPSTTVDILGGGRAALVTANRELGLALADDEIDYLTDSFTQLGRNPVDVELMMFAQA
- soluble fraction (log2): -0.00398

Sequence: HMSTLKSALDEIPGIGAARKRALLNHFGSTRVISSVGVKDLEQVEGVSKKIALLIYGYFHDK
- soluble fraction (log2): -2.57

Sequence: HMLPDYLIELKKKADSGDAVSQNDIGNIYLYGLPRVNIYPDEKNIGIGIDYLYKAAWQDQVNAMTTI
- soluble fraction (log2): -0.098

Sequence: HMQTFNADDIEPIIKEILQENPKAISDFLTGNENVVKFLLGQVMKNTKGKANPKVIEELLINQLRELNN
- soluble fraction (log2): -0.235

Sequence: HMERPLFVIEDYRRFAGNEVEISLKKGGKKIRGVIAGTPSDAEVTVRTQGGETTVPLGDVKRAHLVYV
- soluble fraction (log2): -0.00192
